The results in this text go back to the supplement of paper PMC5998384.

Data set [1] deals with HeLa Kyoto. As to the kind of experiment: solubility in G1/S (NP-40 vs SDS abundance) (log2 ratio); higher = more soluble. The note with it: cell cycle stage: G1/S.
Data set [2] deals with HeLa Kyoto. The data set can be described thus: melting temperature (median over replicates), in situ; higher = more thermally stable.
For data set [3], the system named is HeLa Kyoto. As to the kind of experiment: solubility change mitosis vs G1/S (difference of NP-40 vs SDS log2 ratios) (log2 ratio difference); higher = more soluble in mitosis.
Data set [4] relates to HeLa Kyoto. The data set can be described thus: thermal stability score vs G1/S (z-score of summed log2 fold changes over temperatures); higher = more thermally stable than in G1/S.
Where [5] appears, read: cell cycle stage: early G1 (4.5 h after nocodazole release).
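For melting temperature (median over replicates), in situ in this document: HeLa Kyoto cells synchronized by double thymidine or nocodazole block, proteins quantified by TMT10plex mass spectrometry, three independent biological replicates.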
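For solubility change mitosis vs G1/S (difference of NP-40 vs SDS log2 ratios) in this document: synchronized HeLa Kyoto cells (double thymidine block for G1/S, nocodazole release for mitosis), protein amounts in NP-40 versus SDS lysates quantified by mass spectrometry, three biological replicates.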
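For solubility in G1/S (NP-40 vs SDS abundance) in this document: HeLa Kyoto cells arrested at G1/S by double thymidine block, proteins quantified by TMT10plex mass spectrometry in mild NP-40 versus SDS extracts, three biological replicates.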
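For thermal stability score vs G1/S (z-score of summed log2 fold changes over temperatures) in this document: synchronized HeLa Kyoto cells, proteins quantified by TMT10plex mass spectrometry, three biological replicates, mitosis taken 0.5 h after nocodazole release, G1/S directly after double thymidine block.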

As to “MFRRPVLQVLRQFVRHESETTTSLVLERSLNRVHLLGRVGQDPVLRQVEGKNPVTIFSLATNEMWRSGDSEVYQLGDVSQKTTWHRISVFRPGLRDVAYQYVKKGSRIYLEGKIDYGEYMDKNNVRRQATTIIADNIIFLSDQTKEKE [SSBP1]”, the “solubility in G1/S (log2)” value in data set [1] is 0.0755. In addition, the melting temperature in data set [2] (cell cycle stage: G1/S) is 59.5 °C; in data set [2] (cell cycle stage: mitosis) it was 59.6 °C. Also, the “solubility change mitosis (log2)” value in data set [3] came to 0.0149. In addition, the thermal stability score is 0.62 in data set [4] (setting [5]) and -1.51 in data set [4] (cell cycle stage: mitosis).

For the substance MFSD10, the “solubility in G1/S (log2)” value in data set [1] was -0.0104. For the same substance, the melting temperature in data set [2] (cell cycle stage: G1/S) stood at 57.2 °C; in data set [2] (cell cycle stage: mitosis) it was 57.1 °C. The “solubility change mitosis (log2)” value in data set [3] is -0.219. Moreover, the thermal stability score in data set [4] (setting [5]) was -2.75; in data set [4] (cell cycle stage: mitosis), -4.59.

With “MFSFNMFDHPIPRVFQNRFSTQYRCFSVSMLAGPNDRSDVEKGGKIIMPPSALDQLSRLNITYPMLFKLTNKNSDRMTHCGVLEFVADEGICYLPHWMMQNLLLEEGGLVQVESVNLQVATYSKFQPQSPDFLDITNPKAVLENALRNFACLTTGDVIAINYNEKIYELRVMETKPDKAVSIIECDMNVDFDAPLGYKEPERQVQHEESTEGEADHSGYAGELGFRAFSGSGNRLDGKKKGVEPSPSPIKPGDIKRGIPNYEFKLGKITFIRNSRPLVKKVEEDEAGGRFVAFSGEGQSLRKKGRKP [UFD1L]”, in data set [1], the “solubility in G1/S (log2)” value came to 0.0333. In addition, the melting temperature in data set [2] (cell cycle stage: G1/S) was determined as 54.2 °C; in data set [2] (cell cycle stage: mitosis), 54.3 °C. In addition, the “solubility change mitosis (log2)” value in data set [3] is -0.123. Besides, the thermal stability score in data set [4] (setting [5]) was 0.171; in data set [4] (cell cycle stage: mitosis), -0.639.

Turning to “MFSLSSTVQPQVTVPLSHLINAFHTPKNTSVSLSGVSVSQNQHRDVVPEHEAPSSECMFSDFLTKLNIVSIGKGKIFEGYRSMFMEPAKRMKKSLDTTDNWHIRPEPFSLSIPPSLNLRDLGLSELKIGQIDQLVENLLPGFCKGKNISSHWHTSHVSAQSFFENKYGNLDIFSTLRSSCLYRHHSRALQSICSDLQYWPVFIQSRGFKTLKSRTRRLQSTSERLAETQNIAPSFVKGFLLRDRGSDVESLDKLMKTKNIPEAHQDAFKTGFAEGFLKAQALTQKTNDSLRRTRLILFVLLLFGIYGLLKNPFLSVRFRTTTGLDSAVDPVQMKNVTFEHVKGVEEAKQELQEVVEFLKNPQKFTILGGKLPKGILLVGPPGTGKTLLARAVAGEADVPFYYASGSEFDEMFVGVGASRIRNLFREAKANAPCVIFIDELDSVGGKRIESPMHPYSRQTINQLLAEMDGFKPNEGVIIIGATNFPEALDNALIRPGRFDMQVTVPRPDVKGRTEILKWYLNKIKFDQSVDPEIIARGTVGFSGAELENLVNQAALKAAVDGKEMVTMKELEFSKDKILMGPERRSVEIDNKNKTITAYHESGHAIIAYYTKDAMPINKATIMPRGPTLGHVSLLPENDRWNETRAQLLAQMDVSMGGRVAEELIFGTDHITTGASSDFDNATKIAKRMVTKFGMSEKLGVMTYSDTGKLSPETQSAIEQEIRILLRDSYERAKHILKTHAKEHKNLAEALLTYETLDAKEIQIVLEGKKLEVR [YME1L1]”, in data set [1], the “solubility in G1/S (log2)” value came to 0.0482. In addition, the melting temperature worked out at 50.9 °C in data set [2] (cell cycle stage: G1/S) and 50.8 °C in data set [2] (cell cycle stage: mitosis). Moreover, the “solubility change mitosis (log2)” value in data set [3] was -0.0396. Also, the thermal stability score in data set [4] (setting [5]) came to 2.02; in data set [4] (cell cycle stage: mitosis), 1.49.

Regarding “MFSWLKRGGARGQQPEAIRTVTSALKELYRTKLLPLEEHYRFGAFHSPALEDADFDGKPMVLVAGQYSTGKTSFIQYLLEQEVPGSRVGPEPTTDCFVAVMHGDTEGTVPGNALVVDPDKPFRKLNPFGNTFLNRFMCAQLPNQVLESISIIDTPGILSGAKQRVSRGYDFPAVLRWFAERVDLIILLFDAHKLEISDEFSEAIGALRGHEDKIRVVLNKADMVETQQLMRVYGALMWALGKVVGTPEVLRVYIGSFWSQPLLVPDNRRLFELEEQDLFRDIQGLPRHAALRKLNDLVKRARLVRVHAYIISYLKKEMPSVFGKENKKKQLILKLPVIFAKIQLEHHISPGDFPDCQKMQELLMAHDFTKFHSLKPKLLEALDEMLTHDIAKLMPLLRQEELESTEVGVQGGAFEGTHMGPFVERGPDEAMEDGEEGSDDEAEWVVTKDKSKYDEIFYNLAPADGKLSGSKAKTWMVGTKLPNSVLGRIWKLSDVDRDGMLDDEEFALASHLIEAKLEGHGLPANLPRRLVPPSKRRHKGSAE [EHD2]”, in data set [1], the “solubility in G1/S (log2)” value is 0.231. In addition, the melting temperature in data set [2] (cell cycle stage: G1/S) was found to be 48.9 °C; in data set [2] (cell cycle stage: mitosis) it was 49.5 °C. For the same substance, in data set [3], the “solubility change mitosis (log2)” value was -0.164. The thermal stability score in data set [4] (setting [5]) was 1.58; in data set [4] (cell cycle stage: mitosis) it was 2.05.

On to “MFVPCGESAPDLAGFTLLMPAVSVGNVGQLAMDLIISTLNMSKIGYFYTDCLVPMVGNNPYATTEGNSTELSINAEVYSLPSRKLVALQLRSIFIKYKSKPFCEKLLSWVKSSGCARVIVLSSSHSYQRNDLQLRSTPFRYLLTPSMQKSVQNKIKSLNWEEMEKSRCIPEIDDSEFCIRIPGGGITKTLYDESCSKEIQMAVLLKFVSEGDNIPDALGLVEYLNEWLQILKPLSDDPTVSASRWKIPSSWRLLFGSGLPPALF [PSMG2]”, for which, in data set [1], the “solubility in G1/S (log2)” value amounted to 0.264. For the same substance, the melting temperature is 54.2 °C in data set [2] (cell cycle stage: G1/S) and 53.9 °C in data set [2] (cell cycle stage: mitosis). In addition, the “solubility change mitosis (log2)” value in data set [3] is -0.0561. Also, the thermal stability score in data set [4] (setting [5]) is -0.904; in data set [4] (cell cycle stage: mitosis), -2.71.
